Assays:
[1] = molecular target: 426c Env trimeric gp140 (wild type) (HIV-1 clade C, isolate 426c (HVTN503 participant)) (UniProt M4Q8P8); assay: BLI
[2] = molecular target: mature NIH45-46 IgG (human); assay: BLI

Substance | Kd [1] | Kd [2]
mature NIH45-46 IgG (antibody) | 10.6 nM | 
426c Env trimeric gp140 lacking the NLGS at position 276 (N276D) (natural protein) |  | 3.66 nM

Reference: publication PMC3620356
